# B1: 949 chimeric (949 variable regions with human IgG4 constant domains) (antibody, V domains shown)
# VH: QVQLQQSGAELVKPGASVKMSCKAFGYTFTTYPIEWMKQNHGKSLEWIGNFHPYNDDTKYNEKFKGKAKLTVEKSSTTVYLELSRLTSDDSAVYYCARENYGSHGGFVYWGQGTLVTVS
# VL: ENVLTQSPAIMSASPGEKVTMTCRASSSVISSYLHWYQQKSGASPKLWIYSTSNLASGVPDRFSGSGSGTSYSLTISSVEAEDAATYYCQQYNGYPLTFGAGTKLEIK
# notes: also called original CA949 construct, cLcH
# Experiments:
# [1] = molecular target: T1, human PD-1 on cells (transfected HEK293 cells; human T cells) (human, UniProt Q15116 25-288); test: flow cytometry on activated human T cells; top of curve constrained; top part of curve constrained to ~45 geo mean
# T1 construct: whole, on cells; HEK293 cells transiently transfected with human PD-1 DNA; also called PD-1 expressing HEK293 cells; PD-1 transfected HEK cells
# [2] = molecular target: T1, human PD-1 on cells (transfected HEK293 …); test: flow cytometry on activated human T cells; unconstrained curve; unconstrained curve
# [3] = molecular target: T2, human PD-1 (recombinant, titrated in BIAcore) (human, UniProt Q15116 25-170); test: SPR BIAcore 3000; antibody captured by anti-human Fc, human PD-1 titrated;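 also: CM5 chip with amine-coupled goat anti-human Fc F(ab′)₂, HBS-EP running buffer at 10 µL/min, blank-surface-subtracted sensorgrams fitted in BIAevaluation 3.2 for kinetic constants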
# T2 construct: extracellular domain; also called recombinant human PD-1 extracellular domain
# T2 sequence (Q15116 25-170): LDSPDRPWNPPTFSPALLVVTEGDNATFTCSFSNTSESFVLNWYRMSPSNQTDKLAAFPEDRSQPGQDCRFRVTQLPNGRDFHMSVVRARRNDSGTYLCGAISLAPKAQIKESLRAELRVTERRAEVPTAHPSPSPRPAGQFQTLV
# T1 sequence (Q15116 25-288): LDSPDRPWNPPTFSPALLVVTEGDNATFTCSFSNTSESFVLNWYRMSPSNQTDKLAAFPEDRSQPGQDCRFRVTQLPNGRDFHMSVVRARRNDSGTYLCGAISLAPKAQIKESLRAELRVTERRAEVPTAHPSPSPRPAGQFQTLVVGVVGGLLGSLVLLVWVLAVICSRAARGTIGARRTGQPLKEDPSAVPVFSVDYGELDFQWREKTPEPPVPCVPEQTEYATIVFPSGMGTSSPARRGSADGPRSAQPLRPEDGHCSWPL
binder,measurement,setting,value
B1,EC50,[1],3.61 µg/mL
same,EC50,[2],1.2 µg/mL
same,Kd,[3],5.98 nM

# Source: US20110229461A1 (UCB, published 2011)
